In PMC4802042 (2016):

B1: MKP5 catalytic domain (MKP5-CD, residues 320-467) [human] / GST-JNK1 (wild type) [human] (parent complex)
chain 1: AELTPILPFLFLGNEQDAQDLDTMQRLNIGYVINVTTHLPLYHYEKGLFNYKRLPATDSNKQNLRQYFEEAFEFIEEAHQCGKGLLIHCQAGVSRSATIVIAYLMKHTRMTMTDAYKFVKGKRPIISPNLNFMGQLLEFEEDLNNGVT
chain 2: MSRSKRDNNFYSVEIGDSTFTVLKRYQNLKPIGSGAQGIVCAAYDAILERNVAIKKLSRPFQNQTHAKRAYRELVLMKCVNHKNIIGLLNVFTPQKSLEEFQDVYIVMELMDANLCQVIQMELDHERMSYLLYQMLCGIKHLHSAGIIHRDLKPSNIVVKSDCTLKILDFGLARTAGTSFMMTPYVVTRYYRAPEVILGMGYKENVDIWSVGCIMGEMIKGGVLFPGTDHIDQWNKVIEQLGTPCPEFMKKLQPTVRTYVENRPKYAGYSFEKLFPDVLFPADSEHNKLKASQARDLLSKMLVIDASKRISVDEALQHPYINVWYDPSEAEAPPPKIPDKQLDEREHTIEEWKELIYKEVMDLLE
B2: MKP7 catalytic domain (MKP7-CD, residues 156-301) [human] / GST-JNK1 (wild type) [human] (parent complex)
chain 1: NIGPTRILPNLYLGCQRDVLNKELMQQNGIGYVLNASNTCPKPDFIPESHFLRVPVNDSFCEKILPWLDKSVDFIEKAKASNGCVLVHCLAGISRSATIAIAYIMKRMDMSLDEAYRFVKEKRPTISPNFNFLGQLLDYEKKIKNQ
chain 2: B1 chain 2

Variants of: B1
Experiment: GST pull-down; parent: 100; read off a plot

percent of parent | Variant
~43 % of wild-type JNK1 | chain 2 T255A
~88 % of wild-type JNK1 | chain 2 T228A

More lines, now with the values behind:

Variant | percent of parent
chain 2 I231D | ~28 % of wild-type JNK1
chain 2 R263A | ~98 % of wild-type JNK1
chain 2 H230D | ~98 % of wild-type JNK1
chain 2 Q253A | ~67 % of wild-type JNK1
chain 2 I197D | ~49 % of wild-type JNK1

Variants of: B2
Experiment: GST pull-down; parent: 100; read off a plot

percent of parent | Variant
~72 % of wild-type JNK1 | chain 2 T228A
~8 % of wild-type JNK1 | chain 2 V260D
~30 % of wild-type JNK1 | chain 2 T255A
~73 % of wild-type JNK1 | chain 2 R263A

The next lines start with the variant.

Variant | percent of parent
chain 2 H230D | ~96 % of wild-type JNK1
chain 2 I231D | ~37 % of wild-type JNK1
chain 2 I197D | ~88 % of wild-type JNK1
chain 2 Q253A | ~92 % of wild-type JNK1
chain 2 D229A | ~5 % of wild-type JNK1
